Assay results taken from publication PMC5993284, “Peptide inhibitors of the anaphase promoting-complex that cause sensitivity to microtubule poison” (PLoS ONE, 2018).
Ends that are not written are not given here. * marks the point of attachment. Biotin = O=C1N[C@H]2[C@H](CS[C@H]2CCCCC(=O)*)N1

Tests used:
Cdc20 = assay: Avidin-bead pull-down of full-length Cdc20 made by IVT/T; format: binding, Saccharomyces cerevisiae; details: biotinylated form; Avidin beads; rabbit reticulocyte lysate; Western blot; n = 3
Description: To determine if Tyc1 could interact directly with the APC/C a pure N-terminal biotinylated form of Tyc1 was incubated with purified APC/C. […] Thus, like Mad2-binding motif peptides, unexpectedly Tyc1 protein binds to and inhibits APC/C when present in excess leading to a microtubule poison sensitivity phenotype in vivo.
Supplementary file pone.0198930.s008.tif: S8 Fig Tyc1 can pull-down recombinant Cdc20 synthesized by IVT/T. A) A Western blot displaying the detection of Cdc20 protein made by IVT/T (left), where the epitope tag is at the N-terminus of the ORF. The IVT/T reaction yields a series of protein products that display full-length and lower molecular weights, potentially the result of pre-mature translation termination. An Avidin-bead pull-down using a biotinylated-Tyc1 (Bio-Tyc1) is shown (right). […] B) An Avidin-bead pull-down using a biotinylated-Tyc1-mut1 (Bio-Tyc1-mut1) (middle) and biotinylated-Tyc1-mut2 (Bio-Tyc1-mut2) are shown (right). […] (TIF) Click here for additional data file.

[1] = target: Anaphase Promoting-Complex/Cyclosome (APC/C) isolated through Cdc16-TAP and kept on IgG beads (S. cerevisiae | S. cerevisiae (endogenous in yeast)) (UniProt P09798)
Anaphase Promoting-Complex/Cyclosome (APC/C) isolated through Cdc16-TAP and kept on IgG beads (S. cerevisiae | S. cerevisiae (endogenous in yeast)), sequence (P09798 whole entry, looked up, one chain of several): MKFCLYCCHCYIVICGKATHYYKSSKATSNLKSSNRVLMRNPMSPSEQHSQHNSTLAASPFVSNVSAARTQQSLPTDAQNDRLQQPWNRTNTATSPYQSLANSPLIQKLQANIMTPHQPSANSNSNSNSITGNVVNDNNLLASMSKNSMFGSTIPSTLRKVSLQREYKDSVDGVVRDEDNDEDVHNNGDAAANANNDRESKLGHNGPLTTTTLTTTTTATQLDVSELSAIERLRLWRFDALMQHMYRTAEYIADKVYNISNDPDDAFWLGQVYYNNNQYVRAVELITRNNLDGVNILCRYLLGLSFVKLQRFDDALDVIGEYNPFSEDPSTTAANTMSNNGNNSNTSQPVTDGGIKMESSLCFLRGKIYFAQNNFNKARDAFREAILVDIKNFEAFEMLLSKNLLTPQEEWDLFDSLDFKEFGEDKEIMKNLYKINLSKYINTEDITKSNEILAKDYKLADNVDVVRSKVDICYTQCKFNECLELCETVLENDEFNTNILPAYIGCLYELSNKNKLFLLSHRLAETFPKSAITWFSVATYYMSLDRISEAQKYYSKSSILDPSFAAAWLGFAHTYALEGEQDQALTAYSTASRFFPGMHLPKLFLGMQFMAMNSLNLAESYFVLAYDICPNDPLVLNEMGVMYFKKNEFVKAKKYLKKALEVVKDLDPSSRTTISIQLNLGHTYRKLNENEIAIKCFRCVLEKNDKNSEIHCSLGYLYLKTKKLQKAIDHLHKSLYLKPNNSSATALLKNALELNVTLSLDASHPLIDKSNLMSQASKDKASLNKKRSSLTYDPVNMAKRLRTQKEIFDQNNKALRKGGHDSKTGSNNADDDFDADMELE

[2] = target: Anaphase Promoting-Complex/Cyclosome (APC/C) isolated through Cdc16-TAP and kept on IgG beads (S. cerevisiae | S. cerevisiae (endogenous in yeast)) (UniProt P09798); remark: listed apart in the source
[3] = target: Anaphase Promoting-Complex/Cyclosome (APC/C) isolated through Cdc16-TAP and kept on IgG beads (S. cerevisiae | S. cerevisiae (endogenous in yeast)) (UniProt P09798); remark: listed apart in the source
APC/C [4] = assay: APC/C activity promoted by mutant Cdc20 alleles (Pds1 remaining); format: biochemical, Saccharomyces cerevisiae
Description: (§1) The production of Cdc20 or Cdh1 was prepared by IVT/T reactions, where 16 μL of rabbit reticulocyte lysate, 20 μM L-methionine, 0.4 μg of plasmid DNA, and a volume of nuclease-free ddH2O for a total volume of 20 μL. This freshly synthesized Cdc20 or Cdh1 protein was used directly in all APC/C assays after a 1-hour synthesis reaction at room temperature. The APC/C was purified for enzyme assays from 1 mL of TAP-tagged Cdc16 yeast extract (SCSY51) where extract was mixed with 50 μL 50:50 slurry magnetic beads (Invitrogen, Norway) for 2 hours at 4 °C. After incubation, the beads were washed with 3 mL APC/C wash buffer (200 mM of HEPES, 150 mM of NaCl and 10% (v/v) of glycerol). APC/C bound to IgG magnetic beads was used directly in the enzyme assays.
(§2) APC/C assays were performed by adding the reaction contents in following order: 4.3 μL of QAH buffer, 20 μL of rabbit reticulocyte lysate containing Cdc20 or Cdh1 with or without an additional volume of recombinant checkpoint protein(s) or inhibitor peptides, 2.4 μL ubiquitin aldehyde (Boston Biochem, USA), APC/C, 16 μL pre-charged E1/E2/ATP/ubiquitin mix, and 13.3 μL of ^35S-Pds1 with QAH buffer (20 mM HEPES at pH 8.0, 100 mM NaCl, and 1 mM MgCl2). The E1/E2/ATP/ubiquitin mix were pre-charged by mixing 1 μL of E1 (Boston Biochem, USA), 1 μL of E2 (Boston Biochem, USA), 14.4 μL of ATP, 14.4 μL of […] (Boston Biochem, USA), and 17.2 μL of QAH buffer and incubated for 15 minutes at room temperature. Approximately 15 μL of samples were taken out at each time point, and the reaction was stopped by the addition of 2x protein sample buffer (125 mM Tris-HCl pH 6.8, 4% SDS, 20% glycerol, and 0.002% bromophenol blue, with 10% (final v/v) 2-mercaptoethanol added in fresh directly before use).
For APC/C activity assays dried-gels were exposed on a phosphor screen cassette to detect radio-labeled protein. The phosphor screen was scanned by a Typhoon phosphor-imager (GE Healthcare Bio-Sciences, USA), and radio-labeled protein bands in gels were quantified by employing the ImageQuant software (GE Healthcare Bio-Sciences, USA) according to the manufacturer’s protocols. Data were expressed as mean ± standard deviation, and was analyzed using Student’s t-test. Graphs were created using Kaliedograph 4.0 (Synergy Software, USA) and estimates of best-fit curves of a 4-parameter Hill equation were generated to obtain estimates for the median inhibitory concentrations (IC50) and Hill coefficients (Hc) using IgorPro 6.01 (Wavemetrics, USA).
By sequence alignment and amino acid homology alone, the budding yeast KILR-motif may be defined as 201-RILQ-204 (Fig 1A). However, the next residue, Tyrosine Y205 had previously been isolated in a genetic screen for spindle checkpoint by-pass alleles of Cdc20 [21], indicating this Y205 residue may be a target of the spindle checkpoint inhibition, and thus might also be a functional KILR-motif residue that contributes to APC/C activation. To clarify this possibility, we took the initial step to characterize several of the previously isolated spindle checkpoint by-pass mutant alleles of Cdc20 [21], and also Cdc20 mutants in the two highly conserved residues within the Mad2-binding motif, the aspartic acid at D197 of unknown function and the highly conserved Leucine L203 within the KILR-motif based on sequence alignment and homology. […]

APC/C [5] = assay: APC/C activity promoted by mutant Cdc20 alleles in the presence of Mad2 (Pds1 remaining); format: biochemical, Saccharomyces cerevisiae; details: 5.0 μM Mad2, n = 3
Description: as §1, §2
For inhibitor titration and time-course experiments, recombinant Bub3, Mad2, Mad3, and the Mad3-Bub3 complex were expressed and purified as previously described. Inhibitory peptides were synthesized by standard procedures and purified to 99% purity by HPLC (Kelowna International Scientific Inc., Taiwan). For inhibition of APC/C the co-factor Cdc20 or Cdh1 was made fresh by IVT/T, and pure recombinant checkpoint proteins or inhibitor peptides were added to the IVT/T mixture and incubated for an additional hour at room temperature. In titrations, a dilution series of the checkpoint protein(s) were made before incubation with the Cdc20 co-factor. […]
Our first goal was to measure the ability of the mutant alleles to promote APC/C activity in vitro. To ensure any observed change in APC/C activity reflected a change in function, and not a change in the amount of Cdc20 co-factor protein produced by IVT/T, the amounts of Cdc20 protein produced by IVT/T was measured, and no significant difference was observed (S4 Table). […]

Bio-Tyc1: biotinylated-Tyc1 (Biotin-MKVLDDWFSRKFSKAVHGNNHGTISLSTLSYIRVHKLVK)
pull-down of full-length Cdc20 from IVT/T lysate (in words) (Cdc20): Both full-length and lower molecular weight forms of Cdc20 were observed

non-biotinylated PQ65 (Cdc20 169–232) (from UniProt P26309 169-232) (peptide)
inhibition of APC/C^Cdc20 activity in vitro (35S-Pds1 substrate), serial dilution of PQ65; blocks the binding of co-factor Cdc20 to APC/C [1]: < 50 µM

non-biotinylated Tiny Yeast Comet 1 (Tyc1) (natural protein)
inhibition of APC/C^Cdc20 activity in vitro (35S-Pds1 substrate), titration of Tyc1; blocks the binding of co-factor Cdc20 to APC/C [2]: 50 µM

B1: non-biotinylated DQ36 (Cdc20 197–232) (peptide)
peptide: DMNKRILQYMPEPPKCSSLRQKSYIMKKRTHYSYQQ
modifications: not fully specified
inhibition of APC/C^Cdc20 activity in vitro (35S-Pds1 substrate), titration of DQ36; blocks the binding of co-factor Cdc20 to APC/C [3]: 150 µM

B2: Cdc20-127 (Y205N): spindle checkpoint by-pass mutant allele of Cdc20, Y205N (protein, UniProt P26309 1-610, looked up, variant Y205N)
APC/C activator protein CDC20: MPESSRDKGNAAISGNRSVLSIASPTKLNILSSDWSRNQGKVSKNSLKRSSSLNIRNSKRPSLQASANSIYSRPKITIGAPPLIRRDSSFFKDEFDAKKDKATFSAYSSRSYPTIGSESVVSQTSLSQPTTSREVDEQFTVAADRYIPILQGASQNKVDPETLHEALPPPNASPISHLRAQTKIVFKQNVAEACGLDMNKRILQNMPEPPKCSSLRQKSYIMKKRTHYSYQQEQKIPDLIKLRKINTNPERILDAPGFQDDFYLNLLSWSKKNVLAIALDTALYLWNATTGDVSLLTDFENTTICSVTWSDDDCHISIGKEDGNTEIWDVETMSLIRTMRSGLGVRIGSLSWLDTLIATGSRSGEIQINDVRIKQHIVSTWAEHTGEVCGLSYKSDGLQLASGGNDNTVMIWDTRTSLPQFSKKTHTAAVKALSWCPYSPNILASGGGQTDKHIHFWNSITGARVGSINTGSQVSSLHWGQSHTSTNGGMMNKEIVATGGNPENAISVYNYETKFKVAEVVHAHEARICCSQLSPDGTTLATVGGDENLKFYKIFDPRCTGRSREDGLMDGMLGLIGKEGCRTNDKENRSKNSSEIHTRRPSSTSQYLIR
ability of mutant Cdc20 to promote APC/C activity (in words) (APC/C [4]; vs wild type Cdc20, n = 3): consistently displayed a decrease in APC activity
ability of mutant Cdc20 to promote APC/C activity (in words) (APC/C [4]; vs wild type Cdc20, n = 3, listed as Cdc20-127): displayed decreased APC/C activity
ability of mutant Cdc20 to promote APC/C activity in the presence of Mad2 (in words) (APC/C [5]): consistently displayed APC activity in the presence of Mad2
ability of mutant Cdc20 to promote APC/C activity in the presence of Mad2 (in words) (APC/C [5]; listed as Cdc20-127): promote APC/C activity at the same level as control reactions even in the presence of 5.0 μM Mad2
